Experimental findings from patent US9359599 are described below.

In series [1] the test system is CCR5B L16 TALEN (Artificial (Xanthomonas TALE-FokI)). Nature of the series: cleavage_in_vitro. Particulars: as L16+R16 pair.
For series [2], the system named is CCR5B L10 TALEN (Artificial (Xanthomonas TALE-FokI)). Nature of the series: cleavage_in_vitro. To be noted: as L10+R10 pair.
The test system of series [3] is CCR5A R18 TALEN Q7 EL/KK (Artificial (Xanthomonas TALE-FokI)). Kind of series: cleavage_in_vitro. To be noted: as pair, 16 nM.
In series [4] the test system is CCR5A R18 TALEN Q3 EL/KK (Artificial (Xanthomonas TALE-FokI)). Nature of the series: cleavage_in_vitro. Particulars: as pair, 16 nM.
The subject of series [5] is CCR5A R18 TALEN canonical EL/KK (Artificial (Xanthomonas TALE-FokI)). Kind of series: cleavage_in_vitro. Particulars: as L18+R18 pair, 16 nM.
Series [6] deals with CCR5A R18 TALEN N3 EL/KK (Artificial (Xanthomonas TALE-FokI)). Kind of series: cleavage_in_vitro. To be noted: as pair, 16 nM.
For series [7], the system named is CCR5A R18 TALEN 28-aa EL/KK (Artificial (Xanthomonas TALE-FokI)). Kind of series: cleavage_in_vitro. To be noted: as pair, 16 nM.
Series [8] concerns CCR5A R18 TALEN N2 EL/KK (Artificial (Xanthomonas TALE-FokI)). Kind of series: cleavage_in_vitro. To be noted: as pair, 16 nM.
Series [9] has as its system CCR5A R18 TALEN N1 EL/KK (Artificial (Xanthomonas TALE-FokI)). Kind of series: cleavage_in_vitro. To be noted: as pair, 16 nM.
The subject of series [10] is CCR5A R18 TALEN canonical ELD/KKR (Artificial (Xanthomonas TALE-FokI)). Nature of the series: cell_activity.
Series [11] concerns CCR5A R18 TALEN Q3 ELD/KKR (Artificial (Xanthomonas TALE-FokI)). Nature of the series: cell_activity.
The subject of series [12] is CCR5A R18 TALEN Q7 ELD/KKR (Artificial (Xanthomonas TALE-FokI)). Kind of series: cell_activity.
The test system of series [13] is CCR5B R10 TALEN (Artificial (Xanthomonas TALE-FokI)). Kind of series: cleavage_in_vitro. To be noted: as L10+R10 pair.
Series [14] deals with CCR5B L13 TALEN (Artificial (Xanthomonas TALE-FokI)). Kind of series: cleavage_in_vitro. Particulars: as L13+R13 pair.
The subject of series [15] is CCR5B R16 TALEN (Artificial (Xanthomonas TALE-FokI)). Nature of the series: cleavage_in_vitro. Particulars: as L16+R16 pair.
Series [16] concerns ATM R18 TALEN N1 EL/KK (Artificial (Xanthomonas TALE-FokI)). Kind of series: cleavage_in_vitro. Particulars: as pair, 12 nM.
The test system of series [17] is ATM R18 TALEN N3 EL/KK (Artificial (Xanthomonas TALE-FokI)). Nature of the series: cleavage_in_vitro. To be noted: as pair, 12 nM.
In series [18] the test system is ATM R18 TALEN Q3 EL/KK (Artificial (Xanthomonas TALE-FokI)). Kind of series: cleavage_in_vitro. Particulars: as pair, 12 nM.
For series [19], the system named is ATM R18 TALEN canonical EL/KK (Artificial (Xanthomonas TALE-FokI)). Nature of the series: cleavage_in_vitro. Particulars: as pair, 12 nM.
In series [20] the test system is ATM R18 TALEN N2 EL/KK (Artificial (Xanthomonas TALE-FokI)). Nature of the series: cleavage_in_vitro. To be noted: as pair, 12 nM.
The test system of series [21] is ATM R18 TALEN Q7 EL/KK (Artificial (Xanthomonas TALE-FokI)). Kind of series: cleavage_in_vitro. Particulars: as pair, 12 nM.
The subject of series [22] is ATM L18 TALEN N2 EL/KK (Artificial (Xanthomonas TALE-FokI)). Kind of series: cleavage_in_vitro. To be noted: as pair, 12 nM.
Series [23] concerns ATM L18 TALEN N1 EL/KK (Artificial (Xanthomonas TALE-FokI)). Nature of the series: cleavage_in_vitro. Particulars: as pair, 12 nM.
For series [24], the system named is ATM L18 TALEN Q3 EL/KK (Artificial (Xanthomonas TALE-FokI)). Kind of series: cleavage_in_vitro. To be noted: as pair, 12 nM.
Series [25] has as its system ATM L18 TALEN canonical EL/KK (Artificial (Xanthomonas TALE-FokI)). Nature of the series: cleavage_in_vitro. To be noted: as L18+R18 pair, 12 nM.
The test system of series [26] is ATM L18 TALEN Q7 EL/KK (Artificial (Xanthomonas TALE-FokI)). Kind of series: cleavage_in_vitro. Particulars: as pair, 12 nM.
For series [27], the system named is ATM L18 TALEN N3 EL/KK (Artificial (Xanthomonas TALE-FokI)). Kind of series: cleavage_in_vitro. Particulars: as pair, 12 nM.
In series [28] the test system is CCR5B R13 TALEN (Artificial (Xanthomonas TALE-FokI)). Nature of the series: cleavage_in_vitro. Particulars: as L13+R13 pair.

For “TCTTCATTACACCTGC (double strand) [CCR5B L16 half-site]”, in [1], the activity (fold enrichment) came out at 59.4.
“TTACACCTGC (double strand) [CCR5B L10 half-site]”: the activity (fold enrichment) in series [2] is 44.
In the case of “AGTATCAATTCTGGAAGA (double strand) [CCR5A right half-site]”, the activity (fold enrichment) in [3] amounted to 62.3; in series [4], 18.6; in [5], 12.2; in series [6], 174; in series [7], 70.4; in series [8], 41.7. Further, the activity (fold enrichment) in series [9] came to 19. Also, the activity in series [10] (pair in U2OS-EGFP cells) was found to be 27.6 % modified; in [11] (pair in U2OS-EGFP cells) it was 24.3 % modified; in series [12] (pair in U2OS-EGFP cells), 5.57 % modified.
“GGTATCTATCCTGGAATA (double strand) [OffC-15 right half-site]” gave an activity in series [10] (pair, off-target, 26 bp spacer) of 0.23 % modified.
As for “CATACAGTCA (double strand) [CCR5B R10 half-site]”, the activity (fold enrichment) in [13] is 44.
As for “GATATCCTTTCTGGAAGA (double strand) [OffC-28 right half-site]”, the activity in [10] (pair, off-target, 19 bp spacer) was 0.163 % modified.
Regarding “TCATTACACCTGC (double strand) [CCR5B L13 half-site]”, the activity (fold enrichment) in series [14] was found to be 113.
“CATACAGTCAGTATCA (double strand) [CCR5B R16 half-site]”: in [15], the activity (fold enrichment) worked out at 59.4.
As to “TTTATTTTACTGTCTTTA (double strand) [ATM right half-site]”, the activity (fold enrichment) in series [16] came to 57.2; in series [17] it was 201; in series [18], 50.4; in series [19], 20.5; in series [20], 119; in series [21] it was 513.
Take “TGAATTGGGATGCTGTTT (double strand) [ATM left half-site]”: the activity (fold enrichment) came to 119 in series [22]; 57.2 in [23]; 50.4 in series [24]; 20.5 in [25]; 513 in series [26]; 201 in series [27].
Consider “CATACAGTCAGTA (double strand) [CCR5B R13 half-site]”, for which the activity (fold enrichment) in series [28] came out at 113.
Regarding “AGGAGCAACTCTGGGAGA (double strand) [OffC-5 right half-site]”, the activity in [10] (pair, off-target, 14 bp spacer) is 2.21 % modified; in series [11] (pair, off-target) it was 0.085 % modified; in [12] (pair, off-target, no indels detected), less than 0.006 % modified.
Regarding “AGCATCAATCCTGGAAGA (double strand) [OffC-16 right half-site]”, the activity in series [10] (pair, off-target, 28 bp spacer) worked out at 0.031 % modified.
With “CTCATCAATTCTGGGTGA (double strand) [OffC-13 right half-site]”, in series [10] (pair, off-target, no indels), the activity was less than 0.006 % modified.
